{
  "source": "patent US20050164323A1",
  "about": "“Methods of treating asthma” (Wyeth, priority 2003, published 2005)",
  "key": {"[1]": {"substrate": "CC(C)C[C@H](NC(=O)[C@H](CO)NC(=O)CNC(=O)[C@H](CCCCN)NC(=O)[C@H](CCCNC(=N)N)NC(=O)[C@H](C)NC(=O)[C@@H](N)Cc1ccccc1)C(=O)N[C@@H](CCCNC(=N)N)C(=O)N[C@@H](CCC(N)=O)C(=O)O", "experiment": "coupled PK/LDH assay: steady-state kinetics, product and dead-end inhibition of PKC-θ KD", "assay_type": "biochemical, human", "conditions": "other: varied peptide substrate, saturating ATP, pH 7.5"}, "[2]": {"substrate": "Nc1ncnc2c1ncn2[C@@H]1O[C@H](COP(=O)(O)OP(=O)(O)OP(=O)(O)O)[C@@H](O)[C@H]1O", "experiment": "purified protein, by the assay type", "conditions": "pH 7.5, 25.0 °C"}},
  "data": [
    {"protein": "PKC-θ KD (Homo sapiens) (protein, PKC-θ KD (amino acid residues 362 to 706) was cloned into a pET16b expression vector; hexa-histidine (C); Met-Gly (non-native N-terminal residues) (N); made in house; host or cells: E. coli BL21-DE3 (pET16b)) MGPELNKERPSLQIKLKIEDFILHKMLGKGSFGKVFLAEFKKTNQFFAIKALKKDVVLMDDDVECTMVEKRVLSLAWEHPFLTHMFCTFQTKENLFFVMEYLNGGDLMYHIQSCHKFDLSRATFYAAEIILGLQFLHSKGIVYRDLKLDNILLDKDGHIKIADFGMCKENMLGDAKTNTFCGTPDYIAPEILLGQKYNHSVDWWSFGVLLYEMLIGQSPFHGQDEEELFHSIRMDNPFYPRWLEKEAKDLLVKLFVREPEKRLGVRGDIRQHPLFREINWEELERKEIDPPFRPKVKSPFDCSNFDKEFLNEKPRLSFADRALINSMDQNMFRNFSFMNPGMERLISHHHHHH", "values": [
      {"measurement": "kcat/Km", "setting": "[1]", "value": "2.7e+06", "unit": "M⁻¹ s⁻¹"},
      {"measurement": "Km", "setting": "[2]; other: 0 mM NaCl", "value": 25, "unit": "µM"},
      {"measurement": "Km", "setting": "[2]; other: initial velocity with peptide 1, 625 mM NaCl", "value": "321 ± 19", "unit": "µM"},
      {"measurement": "Km", "setting": "[2]; other: initial velocity, varied ATP vs peptide 3, 100 mM NaCl", "value": "118 ± 17", "unit": "µM"}
    ]}
  ]
}
